*1 amine or outer side, *2 acyl side, *3 side chain or, on linkers, in order; H or OH if unused. Where no end group is shown, it is not given here. Side-chain parts run from the residue outwards. [ ]: non-standard residue; d: D form. The star is where a group is joined. C18 diacid = O=C(O)CCCCCCCCCCCCCCCCC(=O)*; C16 diacid = O=C(O)CCCCCCCCCCCCCCC(=O)*; γGlu = O=C(O)[C@H](CCC(=O)[*:2])N[*:1]; NMeI = CC[C@H](C)[C@H](NC)C(=O)O; αMeL = CC(C)C[C@](C)(N)C(=O)O; Pentanoyl = CCCCC(=O)*; AEEA = NCCOCCOCC(=O)O; Aib = CC(C)(N)C(=O)O
T1: CRF1R receptor (UniProt P34998 24-415, limits assumed)
T1 sequence (looked up): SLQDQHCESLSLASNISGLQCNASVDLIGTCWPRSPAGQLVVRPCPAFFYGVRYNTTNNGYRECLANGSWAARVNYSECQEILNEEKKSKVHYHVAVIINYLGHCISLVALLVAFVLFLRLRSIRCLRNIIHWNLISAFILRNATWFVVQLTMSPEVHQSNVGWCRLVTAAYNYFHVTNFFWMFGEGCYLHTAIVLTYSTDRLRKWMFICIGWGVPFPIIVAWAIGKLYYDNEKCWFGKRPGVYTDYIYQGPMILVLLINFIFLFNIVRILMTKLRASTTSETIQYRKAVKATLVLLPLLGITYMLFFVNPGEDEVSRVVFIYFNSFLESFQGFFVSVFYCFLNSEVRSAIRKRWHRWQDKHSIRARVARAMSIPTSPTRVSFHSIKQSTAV


Assays:
CRF1R receptor = molecular target: T1, CRF1R receptor; test: cell-based or functional assay
[1] = molecular target: human corticotropin-releasing factor 2a (CRF2a receptor) (human), Q13324; test: cell-based or functional assay
human corticotropin-releasing factor 2a (CRF2a receptor) (human), Q13324, sequence (Q13324 20-411): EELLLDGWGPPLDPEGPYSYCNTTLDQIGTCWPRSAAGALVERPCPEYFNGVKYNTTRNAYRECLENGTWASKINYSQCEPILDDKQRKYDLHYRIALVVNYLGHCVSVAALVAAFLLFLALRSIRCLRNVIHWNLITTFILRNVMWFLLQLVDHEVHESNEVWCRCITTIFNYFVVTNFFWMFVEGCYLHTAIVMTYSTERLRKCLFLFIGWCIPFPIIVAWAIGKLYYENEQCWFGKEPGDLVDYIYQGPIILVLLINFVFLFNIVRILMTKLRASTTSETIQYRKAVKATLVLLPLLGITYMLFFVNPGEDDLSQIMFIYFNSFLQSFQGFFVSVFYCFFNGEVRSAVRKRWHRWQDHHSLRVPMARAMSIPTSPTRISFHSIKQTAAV

| Binder | EC50 (CRF1R receptor) | Emax (% I) (CRF1R receptor) | EC50 [nM] (cAMP) [1] |
| --- | --- | --- | --- |
| [NMeI]VLSLD[dV]PIKLK([AEEA-AEEA-γGlu-γGlu-C18 diacid])Q[Aib]LLKQERQKKQREQAEKNVQILEQV-NH2 (N-terminus assumed; SMILES CC[C@H](C)[C@H](NC)C(=O)N[C@H](C(=O)N[C@@H](CC(C)C)C(=O)N[C@@H](CO)C(=O)N[C@@H](CC(C)C)C(=O)N[C@@H](CC(=O)O)C(=O)N[C@@H](C(=O)N1CCC[C@H]1C(=O)N[C@H](C(=O)N[C@@H](CCCCN)C(=O)N[C@@H](CC(C)C)C(=O)N[C@@H](CCCCNC(=O)COCCOCCNC(=O)COCCOCCNC(=O)CC[C@H](NC(=O)CC[C@H](NC(=O)CCCCCCCCCCCCCCCCC(=O)O)C(=O)O)C(=O)O)C(=O)N[C@@H](CCC(N)=O)C(=O)NC(C)(C)C(=O)N[C@@H](CC(C)C)C(=O)N[C@@H](CC(C)C)C(=O)N[C@@H](CCCCN)C(=O)N[C@@H](CCC(N)=O)C(=O)N[C@@H](CCC(=O)O)C(=O)N[C@@H](CCCNC(=N)N)C(=O)N[C@@H](CCC(N)=O)C(=O)N[C@@H](CCCCN)C(=O)N[C@@H](CCCCN)C(=O)N[C@@H](CCC(N)=O)C(=O)N[C@@H](CCCNC(=N)N)C(=O)N[C@@H](CCC(=O)O)C(=O)N[C@@H](CCC(N)=O)C(=O)N[C@@H](C)C(=O)N[C@@H](CCC(=O)O)C(=O)N[C@@H](CCCCN)C(=O)N[C@@H](CC(N)=O)C(=O)N[C@H](C(=O)N[C@@H](CCC(N)=O)C(=O)N[C@H](C(=O)N[C@@H](CC(C)C)C(=O)N[C@@H](CCC(=O)O)C(=O)N[C@@H](CCC(N)=O)C(=O)N[C@H](C(N)=O)C(C)C)[C@@H](C)CC)C(C)C)[C@@H](C)CC)C(C)C)C(C)C) [SEQ ID NO 28] | > 250 nM | 6% | 2.2 nM |
| Pentanoyl-VLSLD[dV]PIKLK([γGlu-C16 diacid])KILLEQEKQKKQREQAETNKQILAQV-NH2 (SMILES CCCCC(=O)N[C@H](C(=O)N[C@@H](CC(C)C)C(=O)N[C@@H](CO)C(=O)N[C@@H](CC(C)C)C(=O)N[C@@H](CC(=O)O)C(=O)N[C@@H](C(=O)N1CCC[C@H]1C(=O)N[C@H](C(=O)N[C@@H](CCCCN)C(=O)N[C@@H](CC(C)C)C(=O)N[C@@H](CCCCNC(=O)CC[C@H](NC(=O)CCCCCCCCCCCCCCC(=O)O)C(=O)O)C(=O)N[C@@H](CCCCN)C(=O)N[C@H](C(=O)N[C@@H](CC(C)C)C(=O)N[C@@H](CC(C)C)C(=O)N[C@@H](CCC(=O)O)C(=O)N[C@@H](CCC(N)=O)C(=O)N[C@@H](CCC(=O)O)C(=O)N[C@@H](CCCCN)C(=O)N[C@@H](CCC(N)=O)C(=O)N[C@@H](CCCCN)C(=O)N[C@@H](CCCCN)C(=O)N[C@@H](CCC(N)=O)C(=O)N[C@@H](CCCNC(=N)N)C(=O)N[C@@H](CCC(=O)O)C(=O)N[C@@H](CCC(N)=O)C(=O)N[C@@H](C)C(=O)N[C@@H](CCC(=O)O)C(=O)N[C@H](C(=O)N[C@@H](CC(N)=O)C(=O)N[C@@H](CCCCN)C(=O)N[C@@H](CCC(N)=O)C(=O)N[C@H](C(=O)N[C@@H](CC(C)C)C(=O)N[C@@H](C)C(=O)N[C@@H](CCC(N)=O)C(=O)N[C@H](C(N)=O)C(C)C)[C@@H](C)CC)[C@@H](C)O)[C@@H](C)CC)[C@@H](C)CC)C(C)C)C(C)C) [SEQ ID NO 37] |  | 22% | 0.13 nM |
| Ac-IVLSLD[dV]PIKLK([AEEA-AEEA-γGlu-γGlu-C18 diacid])Q[Aib]LLKQERQKKQREQAEKNVQILEQV-NH2 (SMILES CC[C@H](C)[C@H](NC(C)=O)C(=O)N[C@H](C(=O)N[C@@H](CC(C)C)C(=O)N[C@@H](CO)C(=O)N[C@@H](CC(C)C)C(=O)N[C@@H](CC(=O)O)C(=O)N[C@@H](C(=O)N1CCC[C@H]1C(=O)N[C@H](C(=O)N[C@@H](CCCCN)C(=O)N[C@@H](CC(C)C)C(=O)N[C@@H](CCCCNC(=O)COCCOCCNC(=O)COCCOCCNC(=O)CC[C@H](NC(=O)CC[C@H](NC(=O)CCCCCCCCCCCCCCCCC(=O)O)C(=O)O)C(=O)O)C(=O)N[C@@H](CCC(N)=O)C(=O)NC(C)(C)C(=O)N[C@@H](CC(C)C)C(=O)N[C@@H](CC(C)C)C(=O)N[C@@H](CCCCN)C(=O)N[C@@H](CCC(N)=O)C(=O)N[C@@H](CCC(=O)O)C(=O)N[C@@H](CCCNC(=N)N)C(=O)N[C@@H](CCC(N)=O)C(=O)N[C@@H](CCCCN)C(=O)N[C@@H](CCCCN)C(=O)N[C@@H](CCC(N)=O)C(=O)N[C@@H](CCCNC(=N)N)C(=O)N[C@@H](CCC(=O)O)C(=O)N[C@@H](CCC(N)=O)C(=O)N[C@@H](C)C(=O)N[C@@H](CCC(=O)O)C(=O)N[C@@H](CCCCN)C(=O)N[C@@H](CC(N)=O)C(=O)N[C@H](C(=O)N[C@@H](CCC(N)=O)C(=O)N[C@H](C(=O)N[C@@H](CC(C)C)C(=O)N[C@@H](CCC(=O)O)C(=O)N[C@@H](CCC(N)=O)C(=O)N[C@H](C(N)=O)C(C)C)[C@@H](C)CC)C(C)C)[C@@H](C)CC)C(C)C)C(C)C) [SEQ ID NO 27] | > 250 nM | 7% | 16.9 nM |

Now from value to binder:

| EC50 (CRF1R receptor) | Emax (% I) (CRF1R receptor) | EC50 [nM] (cAMP) [1] | Binder |
| --- | --- | --- | --- |
|  | 4% | 1.35 nM | Ac-IVLSLD[dV]PIKLK([γGlu-C16 diacid])KILLEQEKQKKQREQAETNVQILAQV-NH2 (SMILES CC[C@H](C)[C@H](NC(C)=O)C(=O)N[C@H](C(=O)N[C@@H](CC(C)C)C(=O)N[C@@H](CO)C(=O)N[C@@H](CC(C)C)C(=O)N[C@@H](CC(=O)O)C(=O)N[C@@H](C(=O)N1CCC[C@H]1C(=O)N[C@H](C(=O)N[C@@H](CCCCN)C(=O)N[C@@H](CC(C)C)C(=O)N[C@@H](CCCCNC(=O)CC[C@H](NC(=O)CCCCCCCCCCCCCCC(=O)O)C(=O)O)C(=O)N[C@@H](CCCCN)C(=O)N[C@H](C(=O)N[C@@H](CC(C)C)C(=O)N[C@@H](CC(C)C)C(=O)N[C@@H](CCC(=O)O)C(=O)N[C@@H](CCC(N)=O)C(=O)N[C@@H](CCC(=O)O)C(=O)N[C@@H](CCCCN)C(=O)N[C@@H](CCC(N)=O)C(=O)N[C@@H](CCCCN)C(=O)N[C@@H](CCCCN)C(=O)N[C@@H](CCC(N)=O)C(=O)N[C@@H](CCCNC(=N)N)C(=O)N[C@@H](CCC(=O)O)C(=O)N[C@@H](CCC(N)=O)C(=O)N[C@@H](C)C(=O)N[C@@H](CCC(=O)O)C(=O)N[C@H](C(=O)N[C@@H](CC(N)=O)C(=O)N[C@H](C(=O)N[C@@H](CCC(N)=O)C(=O)N[C@H](C(=O)N[C@@H](CC(C)C)C(=O)N[C@@H](C)C(=O)N[C@@H](CCC(N)=O)C(=O)N[C@H](C(N)=O)C(C)C)[C@@H](C)CC)C(C)C)[C@@H](C)O)[C@@H](C)CC)[C@@H](C)CC)C(C)C)C(C)C) [SEQ ID NO 48] |
|  | 3% | 3.09 nM | Ac-IVLSLD[dV]PIKLK([AEEA-AEEA-γGlu-C18 diacid])KILLEQEKQKKQREQAETNVQILAQV-NH2 (SMILES CC[C@H](C)[C@H](NC(C)=O)C(=O)N[C@H](C(=O)N[C@@H](CC(C)C)C(=O)N[C@@H](CO)C(=O)N[C@@H](CC(C)C)C(=O)N[C@@H](CC(=O)O)C(=O)N[C@@H](C(=O)N1CCC[C@H]1C(=O)N[C@H](C(=O)N[C@@H](CCCCN)C(=O)N[C@@H](CC(C)C)C(=O)N[C@@H](CCCCNC(=O)COCCOCCNC(=O)COCCOCCNC(=O)CC[C@H](NC(=O)CCCCCCCCCCCCCCCCC(=O)O)C(=O)O)C(=O)N[C@@H](CCCCN)C(=O)N[C@H](C(=O)N[C@@H](CC(C)C)C(=O)N[C@@H](CC(C)C)C(=O)N[C@@H](CCC(=O)O)C(=O)N[C@@H](CCC(N)=O)C(=O)N[C@@H](CCC(=O)O)C(=O)N[C@@H](CCCCN)C(=O)N[C@@H](CCC(N)=O)C(=O)N[C@@H](CCCCN)C(=O)N[C@@H](CCCCN)C(=O)N[C@@H](CCC(N)=O)C(=O)N[C@@H](CCCNC(=N)N)C(=O)N[C@@H](CCC(=O)O)C(=O)N[C@@H](CCC(N)=O)C(=O)N[C@@H](C)C(=O)N[C@@H](CCC(=O)O)C(=O)N[C@H](C(=O)N[C@@H](CC(N)=O)C(=O)N[C@H](C(=O)N[C@@H](CCC(N)=O)C(=O)N[C@H](C(=O)N[C@@H](CC(C)C)C(=O)N[C@@H](C)C(=O)N[C@@H](CCC(N)=O)C(=O)N[C@H](C(N)=O)C(C)C)[C@@H](C)CC)C(C)C)[C@@H](C)O)[C@@H](C)CC)[C@@H](C)CC)C(C)C)C(C)C) [SEQ ID NO 103] |
|  | -3% | 2.58 nM | Ac-IVLSLD[dV]PIK[αMeL]K([AEEA-AEEA-γGlu-C18 diacid])KILLEQEKQKKQREQAETNVQILAQV-NH2 (SMILES CC[C@H](C)[C@H](NC(C)=O)C(=O)N[C@H](C(=O)N[C@@H](CC(C)C)C(=O)N[C@@H](CO)C(=O)N[C@@H](CC(C)C)C(=O)N[C@@H](CC(=O)O)C(=O)N[C@@H](C(=O)N1CCC[C@H]1C(=O)N[C@H](C(=O)N[C@@H](CCCCN)C(=O)N[C@@](C)(CC(C)C)C(=O)N[C@@H](CCCCNC(=O)COCCOCCNC(=O)COCCOCCNC(=O)CC[C@H](NC(=O)CCCCCCCCCCCCCCCCC(=O)O)C(=O)O)C(=O)N[C@@H](CCCCN)C(=O)N[C@H](C(=O)N[C@@H](CC(C)C)C(=O)N[C@@H](CC(C)C)C(=O)N[C@@H](CCC(=O)O)C(=O)N[C@@H](CCC(N)=O)C(=O)N[C@@H](CCC(=O)O)C(=O)N[C@@H](CCCCN)C(=O)N[C@@H](CCC(N)=O)C(=O)N[C@@H](CCCCN)C(=O)N[C@@H](CCCCN)C(=O)N[C@@H](CCC(N)=O)C(=O)N[C@@H](CCCNC(=N)N)C(=O)N[C@@H](CCC(=O)O)C(=O)N[C@@H](CCC(N)=O)C(=O)N[C@@H](C)C(=O)N[C@@H](CCC(=O)O)C(=O)N[C@H](C(=O)N[C@@H](CC(N)=O)C(=O)N[C@H](C(=O)N[C@@H](CCC(N)=O)C(=O)N[C@H](C(=O)N[C@@H](CC(C)C)C(=O)N[C@@H](C)C(=O)N[C@@H](CCC(N)=O)C(=O)N[C@H](C(N)=O)C(C)C)[C@@H](C)CC)C(C)C)[C@@H](C)O)[C@@H](C)CC)[C@@H](C)CC)C(C)C)C(C)C) [SEQ ID NO 111] |

From patent US20260001928A1 (CORTERIA PHARMACEUTICALS, priority 2022, published 2026)
